According to CN117466995A (YIDAO BIOTECHNOLOGY SUZHOU CO LTD, dated 2024):

Experiments:
Test in all cases: direct ELISA on coated VLP antigens
HPV 33 VLP抗原 = molecular target: T1, HPV 33 VLP抗原 (HPV 33, UniProt P06416 1-499)
T1 sequence: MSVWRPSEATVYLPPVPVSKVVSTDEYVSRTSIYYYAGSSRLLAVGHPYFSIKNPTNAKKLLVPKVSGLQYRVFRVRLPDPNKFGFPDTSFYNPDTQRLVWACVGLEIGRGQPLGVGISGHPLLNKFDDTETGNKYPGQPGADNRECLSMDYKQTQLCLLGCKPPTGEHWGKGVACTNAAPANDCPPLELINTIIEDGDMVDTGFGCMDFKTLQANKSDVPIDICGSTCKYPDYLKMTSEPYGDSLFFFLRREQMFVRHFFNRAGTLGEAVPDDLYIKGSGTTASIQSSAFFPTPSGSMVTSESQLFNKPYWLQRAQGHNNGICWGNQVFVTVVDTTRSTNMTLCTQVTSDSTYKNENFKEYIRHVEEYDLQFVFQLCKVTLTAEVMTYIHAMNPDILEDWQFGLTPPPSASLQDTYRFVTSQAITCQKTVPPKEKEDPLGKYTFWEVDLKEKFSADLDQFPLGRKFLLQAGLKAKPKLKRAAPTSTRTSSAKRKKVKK

HPV 16 VLP抗原 = molecular target: T2, HPV 16 VLP抗原 (HPV 16, UniProt P03101 1-505)
T2 sequence: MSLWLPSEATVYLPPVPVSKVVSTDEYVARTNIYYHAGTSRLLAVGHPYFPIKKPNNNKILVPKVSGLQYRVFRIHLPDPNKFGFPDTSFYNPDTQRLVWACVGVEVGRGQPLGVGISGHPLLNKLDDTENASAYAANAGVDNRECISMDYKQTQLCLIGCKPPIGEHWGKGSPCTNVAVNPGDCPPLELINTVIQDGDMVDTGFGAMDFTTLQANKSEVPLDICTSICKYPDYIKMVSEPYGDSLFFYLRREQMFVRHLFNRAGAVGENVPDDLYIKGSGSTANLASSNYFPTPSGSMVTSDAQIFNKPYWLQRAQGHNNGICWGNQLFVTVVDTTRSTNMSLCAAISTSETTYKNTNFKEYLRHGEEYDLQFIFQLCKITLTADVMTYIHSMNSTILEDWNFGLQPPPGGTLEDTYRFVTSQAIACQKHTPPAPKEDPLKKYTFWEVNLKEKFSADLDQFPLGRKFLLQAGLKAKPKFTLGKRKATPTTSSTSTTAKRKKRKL

HPV11 VLP抗原 = molecular target: T3, HPV11 VLP抗原 (HPV11, UniProt P04012 1-501)
T3 sequence: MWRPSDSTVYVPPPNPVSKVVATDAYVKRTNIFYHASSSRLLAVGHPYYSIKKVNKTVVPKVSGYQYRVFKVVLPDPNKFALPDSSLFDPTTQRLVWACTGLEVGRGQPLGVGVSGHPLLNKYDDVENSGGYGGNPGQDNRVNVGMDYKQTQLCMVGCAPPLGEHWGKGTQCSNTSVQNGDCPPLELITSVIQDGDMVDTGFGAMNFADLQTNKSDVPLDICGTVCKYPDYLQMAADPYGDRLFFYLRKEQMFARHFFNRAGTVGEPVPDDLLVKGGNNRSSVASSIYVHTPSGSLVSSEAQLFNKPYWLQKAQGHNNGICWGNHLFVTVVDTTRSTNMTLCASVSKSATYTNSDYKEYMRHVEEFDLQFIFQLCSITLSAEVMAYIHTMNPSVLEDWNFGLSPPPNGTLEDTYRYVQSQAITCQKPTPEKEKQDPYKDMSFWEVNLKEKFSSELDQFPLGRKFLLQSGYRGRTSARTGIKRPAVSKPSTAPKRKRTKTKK

HPV 58 VLP抗原 = molecular target: T4, HPV 58 VLP抗原 (HPV 58, UniProt P26535 27-524)
T4 sequence: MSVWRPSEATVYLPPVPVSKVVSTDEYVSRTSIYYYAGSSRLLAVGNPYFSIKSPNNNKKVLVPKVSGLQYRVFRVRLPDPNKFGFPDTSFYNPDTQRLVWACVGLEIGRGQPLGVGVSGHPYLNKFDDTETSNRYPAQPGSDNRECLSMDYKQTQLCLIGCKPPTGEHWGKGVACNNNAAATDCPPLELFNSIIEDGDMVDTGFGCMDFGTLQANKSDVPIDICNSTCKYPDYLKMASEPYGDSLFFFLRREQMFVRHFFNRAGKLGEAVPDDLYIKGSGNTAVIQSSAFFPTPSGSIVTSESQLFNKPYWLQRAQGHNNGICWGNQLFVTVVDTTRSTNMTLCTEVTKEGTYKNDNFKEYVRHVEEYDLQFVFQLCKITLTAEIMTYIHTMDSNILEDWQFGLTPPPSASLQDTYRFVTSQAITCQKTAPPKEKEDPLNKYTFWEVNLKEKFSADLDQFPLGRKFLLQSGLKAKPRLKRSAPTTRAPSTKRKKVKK

HPV 18 VLP抗原 = molecular target: T5, HPV 18 VLP抗原 (HPV 18, UniProt P06794 62-568)
T5 sequence: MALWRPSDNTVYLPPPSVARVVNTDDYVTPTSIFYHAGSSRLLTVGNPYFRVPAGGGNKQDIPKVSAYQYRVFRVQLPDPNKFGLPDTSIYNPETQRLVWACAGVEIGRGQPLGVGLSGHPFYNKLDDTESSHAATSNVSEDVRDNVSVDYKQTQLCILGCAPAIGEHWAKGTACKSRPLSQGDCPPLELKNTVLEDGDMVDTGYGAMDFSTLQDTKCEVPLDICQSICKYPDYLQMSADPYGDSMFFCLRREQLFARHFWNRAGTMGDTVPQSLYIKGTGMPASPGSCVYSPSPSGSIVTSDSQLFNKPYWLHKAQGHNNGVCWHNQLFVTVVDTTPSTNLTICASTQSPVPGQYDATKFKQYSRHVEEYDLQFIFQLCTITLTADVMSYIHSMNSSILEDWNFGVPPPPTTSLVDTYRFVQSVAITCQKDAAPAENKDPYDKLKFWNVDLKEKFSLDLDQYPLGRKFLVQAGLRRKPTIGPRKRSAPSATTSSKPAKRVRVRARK

Measured: binding result

B1: 杂交瘤细胞株7A5(CGMCC NO:45706)分泌的鼠源单克隆抗体 (antibody, V domains shown)
VH: QPGAELVKPGASVKLSCKASGYTFTSYWMHWVKQRPGQGLEWIGEINPSNGHTNYNEKFKSKATLTVDKSSSTAYMQLSSLTSEDSAVYYCAPCYGSSYDYYAMDYWGQGTSVTVSS
VL: DIVLTQSPASLAVSLGQRATISCRASQSVSTSSYSYMHWYQQKPGQPPKLLIKYASNLESGVPARFSGSGSGTDFTLNIHPVEEEDTATYYCQHSWEIPYTFGGGTKLEIK
notes: also called 鼠单抗7A5; 抗体7A5
no binding: HPV 33 VLP抗原 | HPV 16 VLP抗原 | HPV11 VLP抗原 | HPV 58 VLP抗原 | HPV 18 VLP抗原

B2: 杂交瘤细胞株11G1(CGMCC NO:45707)分泌的鼠源单克隆抗体 (antibody, V domains shown)
VH: QVQLQQPGAELVKPGASVKLSCKASGYTFTSYWMHWVKRRPGQGLEWIGEINPSNGLTNYNEKFKSKGTLTVDKSSSAAFMHLSSLTSEDSAVYYCARFHGSDLYAMDYWGQGTSVTVSS
VL: DIVLTQSPASLAVSLGQRATISCRASQSVSTSSYSYMHWYQQKPGQPPKLLIKYASNLESGVPARFSGSGSGTDFTLNIHPVEEEDTATYYCQHSWEIPYTFGGGTKLEIK
notes: also called 鼠单抗11G1; 抗体11G1
no binding: HPV 33 VLP抗原 | HPV 16 VLP抗原 | HPV11 VLP抗原 | HPV 58 VLP抗原 | HPV 18 VLP抗原
